From patent publication US20240309087A1 (SHANGHAI JUNSHI BIOSCIENCES, published 2024)
Substitutions are numbered along the chain they refer to.

T1: human CD112R on Jurkat CD112R effector cells (human, UniProt Q6DKI7 1-326)
T1 sequence (looked up): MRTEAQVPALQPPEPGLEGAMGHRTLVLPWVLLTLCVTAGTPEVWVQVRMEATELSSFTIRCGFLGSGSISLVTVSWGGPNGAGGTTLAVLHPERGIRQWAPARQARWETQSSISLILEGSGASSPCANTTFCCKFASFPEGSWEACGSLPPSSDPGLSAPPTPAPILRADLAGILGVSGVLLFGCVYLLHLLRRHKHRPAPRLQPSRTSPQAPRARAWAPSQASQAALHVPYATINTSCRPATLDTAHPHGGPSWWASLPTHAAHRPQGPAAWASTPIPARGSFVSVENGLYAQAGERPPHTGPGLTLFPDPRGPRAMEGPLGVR

T2: hCD112R mFC recombinant protein (human; murine, UniProt Q6DKI7 41-160)
T2 construct: range 41-160; expressed in 293E cells; also called hCD112R ECD mFC; hCD112R-ECD-mFC; not shown: murine IgG2a Fc domain (MX2-mFc vector)
T2 sequence (looked up): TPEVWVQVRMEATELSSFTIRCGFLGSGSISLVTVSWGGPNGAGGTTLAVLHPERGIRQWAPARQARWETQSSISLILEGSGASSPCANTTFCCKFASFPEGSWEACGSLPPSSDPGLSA

B1: Hu22 (antibody, IgG4, V domains shown)
VH: EVQLVESGGGLVKPGGSLRLSCAASGFTFSSYHMSWVRQAPGKGLELVSAISRDGDSTYYPDTVKGRFTISRDDAENSLYLQMNSLRAEDTAVYYCSRHEDYFGFAMDSWGQGTLVTVSS
VL: DIVMTQSPDSLAVSLGERATINCKASQSVSNDVAWYQQKPGQPPKLLIYYVSHRFTGVPDRFSGSGSGTDFTLTISSLQAEDVAVYFCHQAYRSPWTFGQGTKLEIK
notes: humanized IgG4
B2: Hu23 (antibody, IgG4, V domains shown)
VH: B1 VH
VL: DIQMTQSPSSLSASVGDRVTITCKASQSVSNDVAWYQQKPGKAPKLLIYYVSNRFTGVPSRFSGSGSGTDFTLTISSLQPEDFATYFCQQAYRSPWTFGQGTKLEIK
notes: humanized IgG4
B3: Hu28 (antibody, IgG4, V domains shown)
VH: B1 VH with K13Q, S49A, D74N, E76K
VL: B1 VL
notes: humanized IgG4
B4: Hu35 (antibody, IgG4, V domains shown)
VH: B1 VH with K13Q, S49A
VL: B2 VL
notes: humanized IgG4
B5: Hu29 (antibody, IgG4, V domains shown)
VH: B1 VH with K13Q, S49A, D74N, E76K
VL: B2 VL
notes: humanized IgG4
B6: Hu9 (antibody, IgG4, V domains shown)
VH: EVQLVESGGGLVKPGGSLRLSCAASGFTFSSYHMSWVRQAPGKGLELVSAINSNDINTYYLDTVKGRFTISRDIAKNSLYLQMNSLRAEDTAVYYCARHEDYYGFAMDYWGQGTLVTVSS
VL: EIVMTQSPPTLSLSPGERVTLSCKASQSVSNDVAWYQEKPGQAPRLLIYYVSHRFTGIPARFSGSGSGTDFTLTISSLQPEDFAVYYCHQAYRSPWTFGQGTKLEIK
notes: humanized IgG4; also called Hu-09
B7: Hu30 (antibody, IgG4, V domains shown)
VH: B1 VH with K13Q, S49A, D74N, E76K
VL: B6 VL with E38Q, H53N, Y87F, H89Q
notes: humanized IgG4
B8: Hu24 (antibody, IgG4, V domains shown)
VH: B1 VH
VL: B6 VL with E38Q, H53N, Y87F, H89Q
notes: humanized IgG4
B9: Hu36 (antibody, IgG4, V domains shown)
VH: B1 VH with K13Q, S49A
VL: B6 VL with E38Q, H53N, Y87F, H89Q
notes: humanized IgG4
B10: Hu12 (antibody, IgG4, V domains shown)
VH: B6 VH
VL: B6 VL with E38Q, H53N, Y87F, H89Q
notes: humanized IgG4
B11: Hu15 (antibody, IgG4, V domains shown)
VH: B1 VH with D74N, E76K
VL: B6 VL
notes: humanized IgG4
B12: Hu57 (antibody, IgG4, V domains shown)
VH: B6 VH with K13Q, V37I, S49A, D55G, I74N
VL: B6 VL
notes: humanized IgG4
B13: Hu27 (antibody, IgG4, V domains shown)
VH: B1 VH with K13Q, S49A, D74N, E76K
VL: B6 VL
notes: humanized IgG4
B14: Hu21 (antibody, IgG4, V domains shown)
VH: B1 VH
VL: B6 VL
notes: humanized IgG4
B15: Hu54 (antibody, IgG4, V domains shown)
VH: B6 VH with D55G, I74N
VL: B6 VL with E38Q, H53N, Y87F, H89Q
notes: humanized IgG4
B16: Hu60 (antibody, IgG4, V domains shown)
VH: B6 VH with K13Q, V37I, S49A, D55G, I74N
VL: B6 VL with E38Q, H53N, Y87F, H89Q
notes: humanized IgG4

target: T1, human CD112R on Jurkat CD112R effector …; assay: cell-based or functional assay

EC50, CD112R/CD112 reporter | Relative activity (%), EC50 COM701/EC50 antibody | Binder
0.0267 µg/mL | 191% | B1
0.0374 µg/mL | 217% | B2
0.0306 µg/mL | 232% | B3
0.031 µg/mL | 184% | B4
0.0272 µg/mL | 230% | B5
0.0385 µg/mL | 195% | B6
0.034 µg/mL | 184% | B7
0.0485 µg/mL | 167% | B8
0.0356 µg/mL | 160% | B9
0.0542 µg/mL | 144% | B10
0.0237 µg/mL | 209% | B11
1.33 µg/mL | 4.5% | B12
0.0328 µg/mL | 217% | B13
0.0285 µg/mL | 179% | B14
0.0241 µg/mL | 300% | B15
0.0225 µg/mL | 261% | B16

target: T2, hCD112R mFC recombinant protein; assay: ELISA, coated hCD112R-ECD-mFC
Method: (§1) A plate was coated with a hCD112R-ECD-mFC protein (1.5 μg/mL) at a fixed concentration, and the humanized anti-CD112R antibodies diluted in a gradient (initial concentration: 1 μg/mL, 2.5-fold gradient dilution, 12 concentration gradients in total) were added to bind to the antigen. HRP-conjugated goat anti-human antibody IgG (Fc specific) (Sigma, A0170) was subjected to a 5000-fold dilution and used as a detection antibody for detection. The color development was performed with 0.1 mg/mL TMB, and finally stopped with 2 M hydrochloric acid. The plate was read at 420 nm/620 nm. EC₅₀ was obtained by fitting with a four-parameter logistic regression (4PL) model. The […] were COM701 (anti-CD112R antibody, Compugen, obtained by expression and purification according to the sequences in US20180280506A1) and the anti-KLH hu-IgG4 antibody.

EC50 | Binder
0.00425 µg/mL | B1
0.00436 µg/mL | B2
0.00479 µg/mL | B3
0.00439 µg/mL | B4
0.00413 µg/mL | B5
0.00345 µg/mL | B6
0.00396 µg/mL | B7
0.00429 µg/mL | B8
0.0042 µg/mL | B9
0.00288 µg/mL | B10
0.00451 µg/mL | B11
0.00535 µg/mL | B12
0.00442 µg/mL | B13
0.0029 µg/mL | B14
0.00631 µg/mL | B15
0.00602 µg/mL | B16

target: T2, hCD112R mFC recombinant protein; assay: FACS competition, hCD112R mFc on CHO CD112 cells
Method: (§2) Cells CHO CD112 overexpressing human CD112 were co-incubated with a hCD112R mFc protein solution (5 μg/mL) prepared in a staining buffer (PBS+1% FBS), and the humanized anti-CD112R antibodies or the control antibodies at different concentrations (initial concentration: 100 μg/mL, 3-fold dilution, 10 concentration gradients) at 4° C. for 30 min. Unbound antibodies were then washed with a staining buffer and the cells were incubated with 1% (v/v) goat anti-mouse IgG Fc fluorescent secondary antibodies (Jackson ImmunoResearch) prepared in a staining buffer at 4° C. for 30 min in the dark. Finally, the cells were collected by using a flow cytometer (BD Canto II), and the fluorescent antibodies bound to the cell surface were detected. Raw data were analyzed by using FlowJo to obtain MFI values, and a four-parameter curve fitting was performed by using GraphPad Prism software to obtain IC₅₀ values. The positive control and the negative control were COM701 (anti-CD112R antibody, Compugen, obtained by expression and purification according to the sequences in US20180280506A1) and the anti-KLH hu-IgG4 antibody, respectively.

IC50 | Binder
2.67 µg/mL | B1
2.53 µg/mL | B2
2.27 µg/mL | B3
3.4 µg/mL | B4
3.67 µg/mL | B5
4.08 µg/mL | B6
2.37 µg/mL | B7
2.89 µg/mL | B8
2.44 µg/mL | B9
4.18 µg/mL | B10
3.29 µg/mL | B11
3.64 µg/mL | B12
2.31 µg/mL | B13
2.44 µg/mL | B14
3.25 µg/mL | B15
3.49 µg/mL | B16

target: T2, hCD112R mFC recombinant protein; assay: ELISA, coated hCD112R-ECD-mFC; EC50 COM701/EC50 antibody
Method: as §1

Relative activity (%) | Binder
156% | B1
153% | B2
127% | B3
136% | B4
147% | B5
114% | B6
153% | B7
155% | B8
142% | B9
136% | B10
127% | B11
171% | B12
137% | B13
229% | B14
145% | B15
139% | B16

target: T2, hCD112R mFC recombinant protein; assay: FACS competition, hCD112R mFc on CHO CD112 cells; IC50 COM701/IC50 antibody
Method: as §2

Relative activity (%) | Binder
134% | B1
141% | B2
157% | B3
105% | B4
97% | B5
97.5% | B6
151% | B7
124% | B8
146% | B9
95.1% | B10
109% | B11
66.2% | B12
155% | B13
146% | B14
74.1% | B15
69% | B16
